{"source": "patent US20220251185A1", "about": "(VALITOR, published 2022)", "target": "T1, VEGF (biotinylated target on streptavidin BLI probe) (UniProt P15692-4 27-191, limits assumed, biotin (site not stated))", "T1 construct": "also called vascular endothelial growth factor", "T1 sequence (P15692 other isoform, or with tags, fused parts or gaps limits assumed)": "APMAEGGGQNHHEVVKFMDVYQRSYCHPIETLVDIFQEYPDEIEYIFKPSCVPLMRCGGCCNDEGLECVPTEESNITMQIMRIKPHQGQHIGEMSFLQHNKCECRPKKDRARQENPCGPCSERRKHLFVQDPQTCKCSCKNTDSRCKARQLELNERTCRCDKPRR", "test": "binding kinetics, Kd (nM); Example 6 describes BLI on biotinylated target"}
{"binder": "G5-1 (VHH, unconjugated comparator of conjugates 24 and 25; also called G5-1 aVEGF VHH, unconjugated; G5-1 alone) VHH: EVQLQASGGGFVQPGGSLRLSCAASGSTYANYVMGWFRQAPGKEREFVSAISAFNDEVLYYADSVKGRFTISRDNSKNTVYLQMNSLRAEDTATYYCARAGQEEASKNAPGQEPVRYWGQGTQVTVSS", "values": [{"measurement": "Kd", "value": 29.3, "unit": "nM"}]}
